The RNAGym collection of RNA variant scans (doi:10.1021/acssynbio.7b00057)

B1: Pistol ribozyme (parent)
chain: GGGUCGUUGUUCCAUAAUCGCGUGGAUAUGGCACGCAAGUUUCUACCGGGCACCGUAAAUGUCCGACUGGAGCCGUUCGGGCGGCUAUAAACAGACCUCAGGCCCGAAGCGUGGCGGCACCUGCCGCCGGUGGUAAAAAAGAUCGGAAGAGCACACGUCU

Variants of: B1
Experiment: aptazyme ON/OFF ratio, guanine; higher = stronger switching; co-transcriptional cleavage with and without guanine

Variant | aptazyme ON/OFF ratio
U7C U8A G9U U11G C12A C13G | 1.16
U7A U8A U10G C12U C13G | 1.13
U7C U8C G9U U10A C13G | 1.09
U7G U8A U10G U11G C12A C13A | 1.16
U7G U8A G9U U10G U11G C12A | 1.24
U7G U8A G9U U10G U11G C12G | 1.29
U7G U10G C12G C13A | 1.21
U8C G9U U10C U11A C12G C13G | 1.11
U7A G9U U10G C12U C13G | 1.23
U7C U8G G9U U10G U11A C12A C13U | 1.26
U8C G9C C12G C13G | 1.14
U7C U8A G9C C12U | 1.05
U8C G9C U10C U11C C12G C13G | 1.09
U8G G9A U10C U11G | 1.34
U7G G9A C12G C13U | 1.18
U7A U8C G9C U10C U11C C13A | 1.03
G9U U11A C12U C13U | 1.65
U7G U8G C12A | 1.25
U7A U8C U10G C12A | 1.21
U10G C13U | 1.5
U7G U10G U11G C12A C13U | 1.13

Variant | aptazyme ON/OFF ratio
U8A G9U U11A C12G | 1.09
U7A U8A U10G U11C C13G | 1.11
U7C U8A U11A C12G C13A | 1.09
U7C G9C U11A C13G | 1.04
U8A U10G U11C C12A C13U | 1.21
U7G U8G U10G U11A C12G | 1.43
U8G C12U | 1.64
G9U U10A U11C C12A | 1.72
U7G U8C G9C U10C C13G | 1.21
U7G U8A G9U U10A C12G C13U | 1.04
U7C U8C G9A U10G U11G C13A | 1.18
U7G G9U U10C U11A C12A C13A | 1.22
G9C U10A U11A C13U | 1.32
U8C G9A U10A C12A C13A | 1.17
U7A U8G U11A C12A C13U | 1.07
U7A U8C U11C C12G | 1.63
U7A G9U U10A U11A C12G C13A | 1.11
U8A G9U U10G U11G C13G | 1.06
U7C U8G G9C U10C C12G C13U | 1.1
U7A U8C G9A U10G U11A C12U C13A | 1.19
U7G U10G U11A C12U C13U | 1.08

Variant | aptazyme ON/OFF ratio
U7G U8A G9C U10C U11A C12U C13G | 1.04
G9A U10A C12U | 1.86
U7G G9U U10G U11C C13U | 1.1
U7G U8G G9A U11A C12A C13A | 1.23
U7G U8A G9C U11C C12G C13U | 1.04
U7G G9A U11A C12G C13U | 1.12
G9C U11C C12G C13A | 1.13
U7G U8A U10C U11G C13G | 1.26
U7A U8G G9U U10A U11C C13A | 1.02
U7G U8C U11A C12G C13U | 1.12
U7G U8G G9U C12G C13A | 1.3
U8C G9U U11C C12U C13G | 1.04
U7G U8C U10A U11C C13A | 1.05
U7A U8G G9A U10G U11C C13A | 1.12
U7C U8A G9U U11G C12G C13A | 1.14
U7C U8C U10C U11G C12G C13G | 1.13
U8A U10A C12A C13G | 1.08
U8A G9A U10A C12A C13A | 1.17
U7C U8G G9C U10A U11G C13G | 1.03
U7C U8C U10A U11A C12G C13G | 1.21
U7G U8A G9U U10G C12A C13U | 1.08

Variant | aptazyme ON/OFF ratio
G9C U10G U11C C13A | 1.24
U8G U10C U11G C13G | 1.07
U8G G9A U10C U11C C13A | 0.984
U7C G9A U11A C12G C13U | 1.27
U7A U11G C12G C13A | 1.13
U8A G9U U10A C12A C13G | 1.12
U8A G9U U10A C12A C13A | 1.22
G9C U10A U11C C12U C13U | 1.29
U7A U8A G9C U10A U11C C12G C13G | 1.14
U8C G9C U10A U11A | 1.24
G9A C12A | 1.92
U7A U8G G9C U10C U11C C12G C13U | 1.07
U8G G9C U10A U11C C12U C13U | 1.02
U7G G9A C12U C13A | 1.14
U7A U8G G9A U11A C12G | 1.37
U8C U10G U11G C12U | 1.32
U8G G9C U10A C12U C13G | 1.1
U8C G9A U10A U11A C12G | 1.32
U7C U8C U11G C13A | 1.24
U7A U8G G9C U10C C13U | 1.28
U7A G9A C12A C13G | 1.13
